Assay results: patent US20090208416A1

Key:
[1] = target: NKG2A on cynomolgus monkey NK cells (cynomolgus monkey) (UniProt Q68VD2); assay: FACS cynomolgus whole blood, animal T788
[2] = target: NKG2A on rhesus monkey (Macaca mulatta) NK cells (rhesus monkey (Macaca mulatta)) (UniProt Q9MZJ3); assay: FACS rhesus whole blood, animal R99273
[3] = target: NKG2A on rhesus monkey (Macaca mulatta) NK cells (rhesus monkey (Macaca mulatta)) (UniProt Q9MZJ3); assay: FACS rhesus whole blood NK cells, animal P9215
[4] = target: NKG2A on rhesus monkey (Macaca mulatta) NK cells (rhesus monkey (Macaca mulatta)) (UniProt Q9MZJ3); assay: FACS rhesus whole blood, animal R00073 (5.6 kg)
[5] = target: NKG2A on baboon NK cells (baboon); assay: FACS baboon whole blood NK cells, animal PA977
[6] = target: NKG2A on baboon NK cells (baboon); assay: FACS baboon whole blood NK cells, animal V942A
[7] = target: NKG2A on rhesus monkey (Macaca mulatta) NK cells (rhesus monkey (Macaca mulatta)) (UniProt Q9MZJ3); assay: FACS rhesus whole blood, animal R00073 (6.1 kg)
[8] = target: NKG2A on baboon NK cells (baboon); assay: FACS baboon whole blood NK cells, animal V992
[9] = target: NKG2A on rhesus monkey (Macaca mulatta) NK cells (rhesus monkey (Macaca mulatta)) (UniProt Q9MZJ3); assay: FACS rhesus whole blood NK cells, animal N0404
[10] = target: NKG2A on baboon NK cells (baboon); assay: FACS baboon whole blood NK cells, animal V857C
[11] = target: NKG2A on cynomolgus monkey NK cells (cynomolgus monkey) (UniProt Q68VD2); assay: FACS cynomolgus whole blood, animal M859
[12] = target: NKG2A on cynomolgus monkey NK cells (cynomolgus monkey) (UniProt Q68VD2); assay: FACS cynomolgus whole blood, animal AL389
[13] = target: NKG2A on rhesus monkey (Macaca mulatta) NK cells (rhesus monkey (Macaca mulatta)) (UniProt Q9MZJ3); assay: FACS rhesus whole blood NK cells, animal CH256
[14] = target: NKG2A on baboon NK cells (baboon); assay: FACS baboon whole blood NK cells, animal V861B
[15] = target: NKG2A on rhesus monkey (Macaca mulatta) NK cells (rhesus monkey (Macaca mulatta)) (UniProt Q9MZJ3); assay: FACS rhesus whole blood, animal R00085
[16] = target: NKG2A on rhesus monkey (Macaca mulatta) NK cells (rhesus monkey (Macaca mulatta)) (UniProt Q9MZJ3); assay: FACS rhesus whole blood NK cells, animal RU925
[17] = target: NKG2A on rhesus monkey (Macaca mulatta) NK cells (rhesus monkey (Macaca mulatta)) (UniProt Q9MZJ3); assay: FACS rhesus whole blood, animal R00093
[18] = target: NKG2A on rhesus monkey (Macaca mulatta) NK cells (rhesus monkey (Macaca mulatta)) (UniProt Q9MZJ3); assay: FACS rhesus whole blood, animal 31828
[19] = target: NKG2A on rhesus monkey (Macaca mulatta) NK cells (rhesus monkey (Macaca mulatta)) (UniProt Q9MZJ3); assay: FACS rhesus whole blood, animal R00023
[20] = target: NKG2A on rhesus monkey (Macaca mulatta) NK cells (rhesus monkey (Macaca mulatta)) (UniProt Q9MZJ3); assay: FACS rhesus whole blood, animal R00025
[21] = target: NKG2A on baboon NK cells (baboon); assay: FACS baboon whole blood NK cells, animal V989
[22] = target: NKG2A on rhesus monkey (Macaca mulatta) NK cells (rhesus monkey (Macaca mulatta)) (UniProt Q9MZJ3); assay: FACS rhesus whole blood NK cells, animal *8703
[23] = target: NKG2A on baboon NK cells (baboon); assay: FACS baboon whole blood NK cells, animal V914B
[24] = target: NKG2A on baboon NK cells (baboon); assay: FACS baboon whole blood NK cells, animal V9929
[25] = target: NKG2A on rhesus monkey (Macaca mulatta) NK cells (rhesus monkey (Macaca mulatta)) (UniProt Q9MZJ3); assay: FACS rhesus whole blood, animal R00099
[26] = target: NKG2A on cynomolgus monkey NK cells (cynomolgus monkey) (UniProt Q68VD2); assay: FACS cynomolgus whole blood, animal T270
[27] = target: NKG2A on rhesus monkey (Macaca mulatta) NK cells (rhesus monkey (Macaca mulatta)) (UniProt Q9MZJ3); assay: FACS rhesus whole blood NK cells, animal MM031
[28] = target: NKG2A on baboon NK cells (baboon); assay: FACS baboon whole blood NK cells, animal V9920
[29] = target: NKG2A on cynomolgus monkey NK cells (cynomolgus monkey) (UniProt Q68VD2); assay: FACS cynomolgus whole blood, animal AK729
[30] = target: NKG2A on cynomolgus monkey NK cells (cynomolgus monkey) (UniProt Q68VD2); assay: FACS cynomolgus whole blood, animal AL210
[31] = target: NKG2A on cynomolgus monkey NK cells (cynomolgus monkey) (UniProt Q68VD2); assay: FACS cynomolgus whole blood, animal R390
[32] = target: NKG2A on rhesus monkey (Macaca mulatta) NK cells (rhesus monkey (Macaca mulatta)) (UniProt Q9MZJ3); assay: FACS rhesus whole blood, animal 34459
[33] = target: NKG2A on cynomolgus monkey NK cells (cynomolgus monkey) (UniProt Q68VD2); assay: FACS cynomolgus whole blood, animal AK565

UniProt Q68VD2, sequence (Q68VD2 entry or part of it): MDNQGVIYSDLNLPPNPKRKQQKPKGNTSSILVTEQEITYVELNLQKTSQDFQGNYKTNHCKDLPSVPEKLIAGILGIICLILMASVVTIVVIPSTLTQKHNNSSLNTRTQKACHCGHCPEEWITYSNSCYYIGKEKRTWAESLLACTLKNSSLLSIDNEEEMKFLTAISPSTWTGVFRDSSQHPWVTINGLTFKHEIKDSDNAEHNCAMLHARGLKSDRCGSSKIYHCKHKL
UniProt Q9MZJ3, sequence (Q9MZJ3 whole entry): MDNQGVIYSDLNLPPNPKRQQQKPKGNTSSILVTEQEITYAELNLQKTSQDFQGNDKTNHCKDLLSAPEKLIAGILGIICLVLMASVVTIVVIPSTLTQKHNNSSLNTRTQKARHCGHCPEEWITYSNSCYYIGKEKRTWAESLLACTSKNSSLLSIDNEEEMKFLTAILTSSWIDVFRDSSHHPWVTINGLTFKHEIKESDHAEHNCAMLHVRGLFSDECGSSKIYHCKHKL

- % NK+ [1]: 0.3%
- MFI [1]: 0.5
- % NK+ [2]: 0.5%
- MFI [2]: 0.54
- % [3]: 1.4%
- % NK+ [4]: 0.5%
- MFI [4]: 0.4
- % [5]: 0.9%
- tot. MFI [5]: 1.1
- % [6]: 1.7%
- tot. MFI [6]: 1
- % NK+ [7]: 0.7%
- MFI [7]: 0.59
- % [8]: 0.6%
- tot. MFI [8]: 0.3
- % [9]: 0.6%
- % [10]: 0.8%
- tot. MFI [10]: 1.4
- % NK+ [11]: 0.2%
- MFI [11]: 0.51
- % NK+ [12]: 0.3%
- MFI [12]: 0.63
- % [13]: 0.8%
- % [14]: 0.2%
- tot. MFI [14]: 0.6
- % NK+ [15]: 0.9%
- MFI [15]: 0.7
- % [16]: 0.4%
- % NK+ [17]: 1%
- MFI [17]: 0.68
- % NK+ [18]: 0.4%
- MFI [18]: 0.65
- % NK+ [19]: 0.3%
- MFI [19]: 0.5
- % NK+ [20]: 0.7%
- MFI [20]: 0.45
- % [21]: 1.2%
- tot. MFI [21]: 1.2
- % [22]: 0.4%
- % [23]: 0.4%
- tot. MFI [23]: 1.1
- % [24]: 0.3%
- tot. MFI [24]: 0.2
- % NK+ [25]: 1.2%
- MFI [25]: 0.56
- % NK+ [26]: 0.2%
- MFI [26]: 0.54
- % [27]: 0.4%
- % [28]: 0.7%
- tot. MFI [28]: 0.8
- % NK+ [29]: 0.3%
- MFI [29]: 0.6
- % NK+ [30]: 0.4%
- MFI [30]: 0.65
- % NK+ [31]: 0.2%
- MFI [31]: 0.39
- % NK+ [32]: 1.4%
- MFI [32]: 0.76
- % NK+ [33]: 0.6%
- MFI [33]: 0.66
Substance: mouse IgG1 isotype control (antibody)
